Data reported in the domain aggregation screens of Martell et al. (2025).

Test: soluble fraction after stress (log2 fold change); higher = more stays soluble; pooled small domains, quantitative proteomics
Details: stress: pH 4
Method in brief: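 With high-throughput quantitative proteomics, pooled custom libraries of small protein domains were measured after pH 4 stress. Each domain's soluble amount after the stress gives a fold change taken as aggregation propensity. Higher log2 values mean more of the domain stayed soluble.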

HMTGLFSPTEQTRHSKTGATLYSVKLAERIERNAFQSLKKRAKEHDGYYSSFTRSFLFDTPEDAEAFRGT
soluble fraction (log2): -0.0888

HMAQTEIIRVTKDIKKGDAITADKFEKVKVGAYNLPGNVVKNADELKGKFAAADLVRGDYILTSKLTDNP
soluble fraction (log2): 0.0605

HMTDEEFSRIVKYTAVRYGINLYHKKVMVEGRLSNYLAANGFKSYTEYMDRVEADYTGQEAQNLINILTT
soluble fraction (log2): -1.3

HMSMNGNMIHATVIWKGRYFLVKMFFPQLTKPKRAEVQAQIEKAYPGSRVASYHITDYKPGEQFLHV
soluble fraction (log2): -0.156

HMGSFDDAPDQLRQSILQLLAEGPLPPSAITERLNISREDATEALQQLLDEQRIFAVNGMLQLQPG
soluble fraction (log2): -0.538

HMSVLDEVRKLSFHQRNAVFLFYFEGYSMKEIAQIFHVKEGTVSSWLTRARKQLRKQMEEEVLYDESLP
soluble fraction (log2): -0.0883

HMERPEVVAYRLAYASAESLRPALGLVASPSDLEIDERTNTLIVRAVPSVQERVAELVASLDI
soluble fraction (log2): -0.889

HMAESSPYTVRPGDTLWKILAQTQNARYNDFPYLYRKFRELNPNITDLNHIVSGQKIIVPHIPG
soluble fraction (log2): 0.196

HMRSYTPGSAFRLSSVPVYNAETGPSIGVRSGTYYIHSLPVSNGRIRMTNLISRVGKPGQVSFWVEISR
soluble fraction (log2): 0.0269

HMYRYGETPMVVVPDLIGRTVSDIYEEMNADFRLEKFGNGNTVISQAPKPGERVEQGSVIRVYLSGQDQ
soluble fraction (log2): -0.206

HMSSKSDQLYLQLRRRISAMKDGEPFPTVRQLMTEYQVSQSTVTPAINQLKEKGLIEAYVGRGSFVSKK
soluble fraction (log2): 0.161

HMLNERQKKIIKILKDNKNWMTGKELSEFLNVSDRTIRSDIEYINRYNNALIESNVKNGYHLNFE
soluble fraction (log2): -0.0338

HMDVLDVADNVNDDMSFADAFAAARSEVGAGGIFYWHGKAYGTYYENEWAGMSEEDKADYWDAVARTTS
soluble fraction (log2): -0.779

HMDKLFNRQTLGGVELTQKQIEDLNAGKAIFVEGMQRKDGEVFSSYVKLDEATGRPSYTRYNPDSP
soluble fraction (log2): 0.0109

HMILKQTHIVQELTGPIRLQEYGVGIFQQISTKSALKKALKKNQITVDGVVGSTATFIKGGEIIIYHVTE
soluble fraction (log2): -1.68

HMRPEVTEHLKTADAILHGGDINRQSIVDELRQYAPLYIVRGNNDKDWAEAIPHDLTVTLGGVTFFMVHNR
soluble fraction (log2): -0.42

HMGSYIGEAKAKEIALSHAGVSASQATFVRSQFEYDDGRAVYDVDFWSGNKEYDYEIDAKSGTIVSYDFD
soluble fraction (log2): 0.0669

HMTPESSLHSGLGKILHDALTAKIQLTNFEAKFLSDMQSKYDLNGSFSWLSSKQQTTLEKILAKYGR
soluble fraction (log2): 0.0478

HMVSATKAFVNGGNIVVSSPKATRVAVYNVAGQKVAEQAFAGKATIKASDFAKGIYVLKFNDNTVLKLT
soluble fraction (log2): -0.0226

HMPVEHVWHIAENGQTSGPYSKARMGRMAQEGQLTRDTHVWTPGQDGWMRAGDVTELAQLFT
soluble fraction (log2): -0.0732

HMEKDRDKRIRKRVLTALKRNDKKMTDKAFALLTSRIRDESILDQEVLKLIGYVGDRTTIDSKDINIVVAE
soluble fraction (log2): 0.0457

HMTKLTTDERSVYLHIQNKPGVSASSIREALGYKKSKLTSILAQLLEVHKIIDTEGTGKSLKYIL
soluble fraction (log2): 0.091

HMPTPRVPMSKQRQILQLLQDGHLSTREIAAALHISKTSVGDIAKAARLAGLDWEAASKLSDEELSARIYK
soluble fraction (log2): 0.0991

HMERLLVSKINGMITEAKVSVEDVVKVVASRGHYPEVKSIDEYPDDFLSRWVVPNFKKIVEMINANKEA
soluble fraction (log2): 0.239

HMSSQLETTFATLIGKRVSIRLHDPEGGFRDILGHLESPYSLRNRHGNLIEFAHDQIFLWREVI
soluble fraction (log2): -1.18

HMKSISMSKLRHLLQLYVQGRSKKLISEQTGIARNTLKKYIKEFSEAGLSLEALLALSDKELEDLFVK
soluble fraction (log2): 0.282

HMPLTAASLQTYLRGVDYPASKQDLIAHARKSDAPEDAITVLEQYSEQTYRSAADVSAEFGS
soluble fraction (log2): -0.156

HMDKSHYEELGVSRTATHAEIRRAYRHLMRTLHPDSNDGRVDAVRITKVNEAWNVLSQSSSRNAYDKSQV
soluble fraction (log2): -0.0249

HMSSEITYDKFIEMVDKDQVKEVTLQSGVLTVVPKIQKSYYQNASYKVNQMEDVDALTKRLEGTGIVFHY
soluble fraction (log2): 0.129

HMDAINYEDFQLLIKQRGSFKVAFEDIMFSTKVAIEKKEDFYDFVTKLIDNGFNNMAYNYLEGFQD
soluble fraction (log2): -2.34

HMNKMIIELGEKLKALRTENHLRQDQVARLVNVEKSSISMYETGMRQPSYTTLVRLADVFNVTTDYLLGRK
soluble fraction (log2): 0.307

HMRRQRNPEIFDQLVNKFHFTFTQTQQLKQLIKRWHMLFPGKSLKSAIQGYKSAKEILTYINDSLDVVE
soluble fraction (log2): 0.0668

HMIPEKEISYMMPDGFMPKELKIIHITESGRKQIYSAAHKPLDLVNVKAPFVPNTKVQIYINDVPIEELKI
soluble fraction (log2): -0.739

HMRKVVLEEKEANYYAEPNSESELLGVLKRGIHLTVTDVKKEAGSDGWVKLVHPDGQEGWISGRARIRV
soluble fraction (log2): -0.209

HMEDVLVTQIIQLKHVDANDMKTLFTPLLSRGSSQLLAYPQSNVLIITDTRSNIKKITEILDIIDKS
soluble fraction (log2): -0.838

HMNIDEIIGKKAVVIESIDNLQGTGKVRYQGMEWTARAEEENDRIEKDAEVEIIAVKGVKLIVKMK
soluble fraction (log2): -0.19

HMSISSSEAARSAVASSGGTVLGVSKASHGGYKAWAVRIQRADGSVVTGYVDRASGTVYDWVVNQAA
soluble fraction (log2): 0.379

HMAPRSSAVYFYLSQVALKKNQPRKAEAMARRGLTVSQDANRRRALWQLILRSGQAQNNTRVIREAQQAL
soluble fraction (log2): -0.0754

HMDRNIVYSDFIRSVNQGQVSEVLVQGDNIRGRYLNGKVFQTFAPKDPSLISTLRNKGVRISAEPA
soluble fraction (log2): -0.022

HMSERVVVPDLTGKDLVAAQSELREISLAGREEGPGDKVRRQFPVAGVKVPKDTVVILYTED
soluble fraction (log2): 0.117

HMNMIGDVIRNLRTVSSMTQTELGQRMGVIKQTISNWEKNISTPSIDAIVKLSSIFNVPTDYLL
soluble fraction (log2): -0.178

HMDNPLSQQEKRILQLISLGKTNQEIADILYLSNGTVRNYISSILNKLSANNRVEAARIAEEHGW
soluble fraction (log2): -0.929

HMIALKNLREEKRMTQAELSKDLEISPSAIGMYEQGRRVPDVSTLKKISAYFNVSIDYLLGNSTSKDI
soluble fraction (log2): -0.0244

HMDNEIRIPLPSLQRDGFSIGTREDDGSQLVRIMSAGSFGGMIRSFRLPEGMRIEGAKWEGEIVSIRL
soluble fraction (log2): -0.0291

HMKELVEDFASRISNARQSKGWNQSELAKRMAETVNVVKSAESGKSPTDSVIKKLERVLGIILM
soluble fraction (log2): 0.0723

HMQETALANFETNEGVQKVKQYVQENVPSLRGSNIVGVWTSYTPEGLTNYRTRFLTQDGQFVEVNLAYQ
soluble fraction (log2): -0.885

HMEVAASEQRDNLWALARRVLSGEQYDVLYLRYVEDFSVAQIADVVGKTQTHVKVLLFRGRNNLGSRLRS
soluble fraction (log2): -0.0684

HMQSHGSRIWTDITGNFTREASFIELAEGKVTLQLTDGRRTIISFEILSKKDQEYVLDIGDS
soluble fraction (log2): -1.95

HMPSDLQATLRAVQGMLQGVEGVDARLAGQRILLEGDSADARARERAAAIAGIFPGVVIDFVG
soluble fraction (log2): 0.062

HMTERIRLHDDIGSWVEKHGATRSALIPVLQGIQRSYNEISEYAMQEVADRLDIHPVEVYSVVSFYSF
soluble fraction (log2): 0.103

HMKTGNIIAVSLVWKGKYYMIRMFFPSAARPSRADVQTEIEKVYPGSKLSSFSVSDYEPGQPLLQV
soluble fraction (log2): -0.146

HMLDPVLQREKDESFTDYHIRLFKNKDTYHIDTKTIATLLNKDQGTNYDESKWRKDFKQYERWNDYIMSKN
soluble fraction (log2): -0.155

HMKSDVVFDITDGTVKAMLKFNRSDVTILNNDGKNYYLFTANGEFTFKYQDGSGEYYEKTVYVDWLEDE
soluble fraction (log2): -1.56

HMGYKDIDKLSGVDLAIYRFIVEHDEQIPYMRVRELARGAHVSNSSVMRFIRKIGYDSFPEFKVSLRS
soluble fraction (log2): -0.322

HMTGKLGKIILQPKQTVYGITKKYQISESELRRLNPQLDSHLKIGDEVILPAENIKKFGGNQPVAVS
soluble fraction (log2): ≥ 0.43

HMDTIYPFNPNFIDDYKGYVLGLNTNEIDRLLKYRSKGNWINSAEDFKKVTGIDDALLNKLSKSFKFPDWL
soluble fraction (log2): -0.991

HMDNIKRGEMFYISRGGASYSGSEQHSDRPAVVVSNDKNNENSNVVEVVYMTTQPKTDLPTHVTVR
soluble fraction (log2): -0.0773

HMKIHNSIREITDFDRKQNSNIPSDAKYRIVFYTPQGNKTIIPEELQGLQYYRSKELAEIALNKKLNSN
soluble fraction (log2): 0.0952

HMILSTNFFRHIVPKEYQTSYGTMKKWLTDHNVIGTNSIPQGIGYRIPTQGLSSTFSFKVVDVLPDR
soluble fraction (log2): ≥ 0.43

HMGTVFTDIMTDIASGKFPNVFPDSLEAQIQKNVTMAPDKLSATLQYGDKSVILPTTKGKEAAEAAVKAA
soluble fraction (log2): -0.648

HMKKVRIPDDPEEAYRKALKTAMNIVGYKDNTEFTLREKLSERGYSGETVDAVAEFMKSKGYV
soluble fraction (log2): 0.00228

HMNQADNFNSLTKREKDVLLLVTQGESNKSIADKLVLSEVTVKSHLNSIFKKLNVTNRTQAVLVAMQMNLV
soluble fraction (log2): -0.85

HMSAEVSEIEIQRIISYYRNQNGVPDKYNEIFDRIAAQYTDEQLKVISNFLPSDVKQYLSFNNEKYKSLG
soluble fraction (log2): -0.955

HMPLTKKLETLFSLFPKYEKELKKKGVTRIHVWANYKEEYPDGIGRSQFIHYYSFWKKQVSP
soluble fraction (log2): -0.045

HMFTIGENIRDLRLERAITQEQLAEQLNVSAPAVSKWERGEAYPDITLVPKLAEILGVSTDKLFGVD
soluble fraction (log2): -0.265

HMGKKGPELSENEKSIFSILSKSGSMDLTTLKEASGLSNKQWDKGIKGLGKHGLTKVIKTEDALLVEVV
soluble fraction (log2): 0.0105

HMHLTNIPKGFTPSFDTKQWIVEEFGERYNYDNELKIFINHYRASGTTKSDWQYAFRSWLLRAKKFT
soluble fraction (log2): -0.448

HMREPQMVTVNGDKVTHGHAYRSNVNPEDWYFTARINGQQLKPQKMEPADVAAYDKKEIGVPELMQR
soluble fraction (log2): -0.0539

HMARTGSEELVGALATVREPLAPWGQVFVQGALWRARSADGGPVDAGQQVVVRAVEGLTLVVEPRD
soluble fraction (log2): -0.166

HMEQVPEAVGRRVRQARSDRGWTLDQLAERSEVSRRMIVNVEAGTSNASIATLLRLATALNVGLAELVA
soluble fraction (log2): -0.685

HMGEKTVPNVIGQKLATAKQLLEKEGLTVGSTSYNKNQADKDTVLSTDPAPGSHLSEGAKVNLTLSSGA
soluble fraction (log2): 0.0205

HMTKDYVVIYEGLAQTEAVEILGKLQEMGVSAKVDHNDSILVLKDEEDQIRMALATEGYPKS
soluble fraction (log2): -0.803

HMGVTGYPNPTREHITWDDARRIEVWNAYGVPVADLRFARGVLDVAGWPVGTYVARIDGGRSVRFVVI
soluble fraction (log2): -0.663

HMDGRIRFRHAALHDPDVAARLHDYLTTSLPGVRSARVNSQTGSLLLEYDPEVLDRSTLLDLAARAESLL
soluble fraction (log2): -1.06

HMKFPNVGENLRLLRQEMGISLDKASKMTGVSKAMLGQIERGESSPTVSTLWKISSGFKINFTTLLSE
soluble fraction (log2): 0.224
